The record followed here is patent publication US20240424060A1 (DOMPE FARMACEUTICI, published 2024).

The target of assay [1] is TrKA receptor immobilized on the SPR sensor surface. Kind of assay: SPR, receptor immobilized, steady-state 1:1 fit (KDeq).
The target in assay [2] is p75^NTR receptor immobilized on the SPR sensor surface. The assay is described as above.
Assay [3] concerns the target T1, rhNGF-1: recombinant human NGF from R&D Systems Inc (product code: 256-GF/CF), manufactured in a mouse … (human, UniProt P01138 122-241; P01138 122-240; P01138 122-239; P01138 122-238).
T1 construct: A commercial MIXTURE of isoforms, not a complex of four chains: the four entries are alternative forms
The assay is described as above.

The target of assay [4] is T2, Recombinant human NGF (rhNGF) having an aminoacid sequence of 118 aminoacids (rhNGF-118) (human, UniProt P01138 122-239).
T2 construct: Made in E. coli from proNGF mutant SP174-101
The assay is described as above.

Assay [5] concerns the target T1, rhNGF-1: recombinant human NGF from R&D …. Kind of assay: SPR, receptor immobilized, kinetic fit (BIA evaluation). Background: In SPR one partner is held on a chip, and binding of the other changes the refractive index at the surface.
Assay [6] concerns the target T2, Recombinant human NGF (rhNGF) having an …. The description is as above.
The target of assay [7] is T1, rhNGF-1: recombinant human NGF from R&D …. Kind of assay: SPR, receptor immobilized, kinetic Kd (Koff/Kon).
In assay [8] the target is T2, Recombinant human NGF (rhNGF) having an …. Kind of assay: SPR, receptor immobilized, kinetic Kd (Koff/Kon).

T2 sequence (P01138 122-239 limits assumed): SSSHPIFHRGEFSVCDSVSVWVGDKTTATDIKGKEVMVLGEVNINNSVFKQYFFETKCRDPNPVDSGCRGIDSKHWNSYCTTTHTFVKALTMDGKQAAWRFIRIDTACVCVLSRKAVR
T1 sequence (P01138 122-241 limits assumed, chain 1 of 4): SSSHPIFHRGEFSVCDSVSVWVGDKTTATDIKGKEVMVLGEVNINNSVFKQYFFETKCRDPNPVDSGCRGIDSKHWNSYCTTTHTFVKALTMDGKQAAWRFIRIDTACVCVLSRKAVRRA
T1 sequence (P01138 122-240 limits assumed, chain 2 of 4): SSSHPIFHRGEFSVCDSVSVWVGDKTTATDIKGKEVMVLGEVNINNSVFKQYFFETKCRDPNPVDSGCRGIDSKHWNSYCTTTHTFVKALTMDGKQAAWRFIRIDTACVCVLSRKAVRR
T1 sequence (P01138 122-239 limits assumed, chain 3 of 4): as the sequence (P01138 122-239 limits assumed) above
T1 sequence (P01138 122-238 limits assumed, chain 4 of 4): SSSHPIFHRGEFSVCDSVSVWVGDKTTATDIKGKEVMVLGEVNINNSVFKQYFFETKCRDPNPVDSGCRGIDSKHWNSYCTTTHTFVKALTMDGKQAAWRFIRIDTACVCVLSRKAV

A word on the Kd: it is the equilibrium constant for the complex coming apart. In the case of “rhNGF3: recombinant human NGF from Sino Biological (product code: 11050-HNAC), manufactured in CHO cells (from UniProt P01138 122-238) (ligand)”, the Kd in assay [1] worked out at 6 nM; in assay [2] it was 39.1 nM.

On to “rhNGF2: recombinant human NGF from Active Bioscience (product code 1745.955), manufactured in CHO cells (from UniProt P01138 122-238) (ligand)”, for which the dissociation constant (Kd) in assay [1] is 3.85 nM; in assay [2], 15.7 nM.

B1: TrKA receptor immobilized on the SPR sensor surface (receptor)
chain: AAPCPDACCPHGSSGLRCTRDGALDSLHHLPGAENLTELYIENQQHLQHLELRDLRGLGELRNLTIVKSGLRFVAPDAFHFTPRLSRLNLSFNALESLSWKTVQGLSLQELVLSGNPLHCSCALRWLQRWEEEGLGGVPEQKLQCHGQGPLAHMPNASCGVPTLKVQVPNASVDVGDDVLLRCQVEGRGLEQAGWILTELEQSATVMKSGGLPSLGLTLANVTSDLNRKNVTCWAENDVGRAEVSVQVNVSFPASVQLHTAVEMHHWCIPFSVDGQPAPSLRWLFNGSVLNETSFIFTEFLEPAANETVRHGCLRLNQPTHVNNGNYTLLAANPFGQASASIMAAFMDNPFEFNPEDPIPVSFSPVDTNSTSGDPVEKKDETPFGVSVAVG
One may read the koff as a measure of how fast the partners let go of each other. A word on the kon: it is the second-order rate constant of association. As to B1, the Kd in assay [3] amounted to 3.65 nM; in assay [4], 4.33 nM; in assay [7], 0.0792 nM; in assay [8], 0.38 nM. In addition, the koff in assay [5] turned out to be 0.00061 s⁻¹; in assay [6], 0.00075 s⁻¹. Also, the kon in assay [5] was determined as 8.3e+06 M⁻¹ s⁻¹; in assay [6] it was 1.67e+06 M⁻¹ s⁻¹.

B2: p75^NTR receptor immobilized on the SPR sensor surface (receptor)
chain: KEACPTGLYTHSGECCKACNLGEGVAQPCGANQTVCEPCLDSVTFSDVVSATEPCKPCTECVGLQSMSAPCVEADDAVCRCAYGYYQDETTGRCEACRVCEAGSGLVFSCQDKQNTVCEECPDGTYSDEANHVDPCLPCTVCEDTERQLRECTRWADAECEEIPGRWITRSTPPEGSDSTAPSTQEPEAPPEQDLIASTVAGVVTTVMGSSQPVVTRGTTDN
With B2, the Kd in assay [3] worked out at 5.06 nM; in assay [4], 7.1 nM; in assay [7] it was 1.33 nM; in assay [8], 2.6 nM. For the same molecule, the koff in assay [5] amounted to 0.0111 s⁻¹. Besides, the kon in assay [5] turned out to be 8.3e+06 M⁻¹ s⁻¹.
